Measurements: patent publication US20080181899A1 (Regeneron, published 2008)

T1: M. facscicularis DII4 monomer (M. facscicularis, UniProt Q9NR61 27-524 (human entry))
T1 construct: also called mfDII4
T1 chain: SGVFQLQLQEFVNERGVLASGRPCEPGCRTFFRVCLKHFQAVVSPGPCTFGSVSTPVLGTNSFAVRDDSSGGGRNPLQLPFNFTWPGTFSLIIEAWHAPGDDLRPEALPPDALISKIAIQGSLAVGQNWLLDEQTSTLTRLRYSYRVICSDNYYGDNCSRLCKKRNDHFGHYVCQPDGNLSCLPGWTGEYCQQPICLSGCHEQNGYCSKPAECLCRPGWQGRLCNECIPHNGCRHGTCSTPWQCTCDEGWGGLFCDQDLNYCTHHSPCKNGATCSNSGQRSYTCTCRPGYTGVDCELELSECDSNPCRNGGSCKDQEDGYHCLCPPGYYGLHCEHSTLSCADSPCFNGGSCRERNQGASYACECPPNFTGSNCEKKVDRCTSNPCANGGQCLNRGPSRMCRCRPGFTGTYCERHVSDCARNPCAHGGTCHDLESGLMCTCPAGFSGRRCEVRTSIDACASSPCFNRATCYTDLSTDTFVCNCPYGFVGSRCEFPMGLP

T2: M. mulatta DII4 monomer (M. mulatta, UniProt Q9NR61 27-524 (human entry))
T2 construct: also called mmDII4
T2 chain: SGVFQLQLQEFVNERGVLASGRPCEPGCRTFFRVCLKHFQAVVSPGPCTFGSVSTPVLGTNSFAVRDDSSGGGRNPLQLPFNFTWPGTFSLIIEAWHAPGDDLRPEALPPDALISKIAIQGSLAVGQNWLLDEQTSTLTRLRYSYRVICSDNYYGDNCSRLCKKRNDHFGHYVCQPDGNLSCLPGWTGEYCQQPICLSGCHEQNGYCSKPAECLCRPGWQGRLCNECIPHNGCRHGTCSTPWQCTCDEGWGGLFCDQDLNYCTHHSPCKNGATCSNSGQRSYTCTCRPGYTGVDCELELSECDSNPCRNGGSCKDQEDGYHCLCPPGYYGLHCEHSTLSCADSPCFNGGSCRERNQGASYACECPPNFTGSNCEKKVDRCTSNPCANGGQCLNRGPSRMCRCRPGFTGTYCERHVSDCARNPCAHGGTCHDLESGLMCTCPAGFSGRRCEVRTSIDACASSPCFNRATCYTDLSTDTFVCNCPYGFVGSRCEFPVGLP

T3: hDII1-hFc (human delta-like ligand 1 fused to human Fc) (human, UniProt O00548 18-544)
T3 construct: not shown: human Fc
T3 sequence: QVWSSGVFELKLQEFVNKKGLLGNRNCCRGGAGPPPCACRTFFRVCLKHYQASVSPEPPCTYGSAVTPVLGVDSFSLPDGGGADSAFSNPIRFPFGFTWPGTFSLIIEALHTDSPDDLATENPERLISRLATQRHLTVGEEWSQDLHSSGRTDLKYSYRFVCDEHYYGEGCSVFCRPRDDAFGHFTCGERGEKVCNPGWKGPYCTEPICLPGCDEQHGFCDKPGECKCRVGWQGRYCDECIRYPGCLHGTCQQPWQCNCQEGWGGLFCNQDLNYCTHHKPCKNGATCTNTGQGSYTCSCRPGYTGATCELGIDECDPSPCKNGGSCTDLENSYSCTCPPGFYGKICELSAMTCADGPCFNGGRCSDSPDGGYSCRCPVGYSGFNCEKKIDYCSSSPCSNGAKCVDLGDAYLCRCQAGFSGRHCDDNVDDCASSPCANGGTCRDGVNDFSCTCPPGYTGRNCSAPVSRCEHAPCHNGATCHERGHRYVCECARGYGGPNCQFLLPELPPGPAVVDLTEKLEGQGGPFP


Columns and labels:
dimeric hDII4-hFc [1] = target: T4, dimeric hDII4-hFc (human, UniProt Q9NR61 27-524, biotin in Example 3 (biotin-DII4-hFc), site not stated); experiment: cell-based or functional assay
[2] = target: T5, monomeric hDII4 (human delta-like ligand 4) (human, UniProt Q9NR61 27-524); experiment: SPR BIACORE; antibody captured by anti-hFc; monomer analyte
T5 construct: also called monomeric DII4 protein
Description: (§1) The binding affinities of selected purified antibodies to hDII4, M. facscicularis DII4 (mfDII4, SEQ IN NO:956), and M. mulatta DII4 (mmDII4, SEQ ID NO:957) monomers were determined using a BIACORE™ 2000 & 3000.

[3] = target: T1, M. facscicularis DII4 monomer; experiment: as above
Description: as §1

M. mulatta DII4 monomer = target: T2, M. mulatta DII4 monomer; experiment: as above
Description: as §1

[4] = target: T3, hDII1-hFc (human delta-like ligand 1 …); experiment: SPR BIACORE; antibody captured by anti-human kappa; hDII1-hFc analyte
Description: Cross-reactivity of the antibodies to human delta-like ligand1 (SEQ ID NO:953) and human delta-like ligand 3 (SEQ ID NO:954) proteins was determined.

mDII4-mFc = target: T6, mDII4-mFc (mouse, UniProt Q9JI71 28-525); experiment: SPR BIACORE; DII4 protein captured by anti-mouse IgG; antibody injected
T6 construct: also called mouse DII4-mFc; not shown: mouse Fc
Description: (§2) Briefly, each of the DII4 proteins was captured (240-470 RU) on goat anti-mouse IgG antibody surfaces, followed by injection of test antibody at a concentration of 100 μg/ml (Table 11).

[5] = target: T7, chimeric DII4 protein #6 (human DSL domain, V173-Q218, in mouse DII4) fused to mouse IgG2a-Fc (mouse; human, UniProt Q9JI71 28-173; Q9JI71 220-525); experiment: SPR BIACORE; DII4 protein captured by anti-mouse IgG; antibody at 100 µg/ml
T7 construct: not shown: mouse IgG2a-Fc fragment
Description: as §2

dimeric hDII4-hFc [6] = target: T4, dimeric hDII4-hFc; experiment: competition ELISA; antibody titrated against 30 pM biotin-DII4-hFc (1 hr); free biotin-DII4-hFc on Notch-hFc plate
Description: The ability of the antibodies to block DII4 binding to Notch was evaluated with an ELISA-based immunoassay. Briefly, Notch-hFc recombinant protein was coated on a 96-well plate in PBS buffer overnight at 4° C. at […], and the nonspecific binding sites were blocked with BSA.

| Notch-inducible luciferase assay IC50 (pM), 1 nM hDII4-hFc (dimeric hDII4-hFc [1]) [pM] | Notch-inducible luciferase assay IC50 (pM), 1.5 nM hDII4-hFc (dimeric hDII4-hFc [1]) [pM] | Kd [2] [nM] | koff [2] [s⁻¹] | kon [2] [M⁻¹ s⁻¹] | Kd [3] [nM] | koff [3] [s⁻¹] | kon [3] [M⁻¹ s⁻¹] | Kd (M. mulatta DII4 monomer) [nM] | koff (M. mulatta DII4 monomer) [s⁻¹] | kon (M. mulatta DII4 monomer) [M⁻¹ s⁻¹] | binding result [4] | binding result (mDII4-mFc) | binding result [5] | IC50 (dimeric hDII4-hFc [6]) [nM] | Binder |
| --- | --- | --- | --- | --- | --- | --- | --- | --- | --- | --- | --- | --- | --- | --- | --- |
| 50.5 | 78.7 | 0.148 | 2.3e-05 | 156000 | 0.307 | 2.04e-05 | 66400 | 0.329 | 3.05e-05 | 92700 | no binding (tested: 100 µg/ml) | no binding (tested: 100 µg/ml) | binds | 0.042 | 318518-01A10-D8 (antibody, human IgG1, HCVR 429 with hIgG1 constant region 950; also called REGN281; 318518-1A10-D8) heavy: not shown VL: EIVMTQSPATLSLSPGERATLSCRASQSVSSYLAWYQQKPGQAPRLLIYDASNRATGIPARFSGSGSGTDFTLTISSLEPEDFAVYYCQHRSNWPPTFGGGTKVEIK |
| 88.2 | 131 | 0.144 | 2.36e-05 | 164000 | 0.36 | 2.88e-05 | 80100 | 0.375 | 3.41e-05 | 92700 | no binding (tested: 100 µg/ml) | no binding (tested: 100 µg/ml) | binds | 0.039 | REGN422 (antibody, human IgG4 S228P, HCVR 901 with modified hIgG4 constant region 952) heavy: not shown VL: EIVLTQSPATLSLSPGERATLSCRASQSVSSYLAWYQQKPGQAPRLLIYDASNRATGIPARFSGSGSGTDFTLTISSLEPEDFAVYYCQHRSNWPPTFGGGTKVEIK |
| 54.4 | 87.3 | 0.133 | 2.17e-05 | 163000 | 0.278 | 2.02e-05 | 72800 | 0.333 | 3.23e-05 | 97000 | no binding (tested: 100 µg/ml) | no binding (tested: 100 µg/ml) | binds | 0.045 | REGN421 (antibody, human IgG1, HCVR 901 with hIgG1 constant region 950) heavy: not shown VL: EIVLTQSPATLSLSPGERATLSCRASQSVSSYLAWYQQKPGQAPRLLIYDASNRATGIPARFSGSGSGTDFTLTISSLEPEDFAVYYCQHRSNWPPTFGGGTKVEIK |
